According to IntAct's records for PubMed 11100732:

B1: Autophagy-related protein 3 (Saccharomyces cerevisiae), P40344 (parent)
chain: MIRSTLSSWREYLTPITHKSTFLTTGQITPEEFVQAGDYLCHMFPTWKWNEESSDISYRDFLPKNKQFLIIRKVPCDKRAEQCVEVEGPDVIMKGFAEDGDEDDVLEYIGSETEHVQSTPAGGTKDSSIDDIDELIQDMEIKEEDENDDTEEFNAKGGLAKDMAQERYYDLYIAYSTSYRVPKMYIVGFNSNGSPLSPEQMFEDISADYRTKTATIEKLPFYKNSVLSVSIHPCKHANVMKILLDKVRVVRQRRRKELQEEQELDGVGDWEDLQDDIDDSLRVDQYLIVFLKFITSVTPSIQHDYTMEGW
partner: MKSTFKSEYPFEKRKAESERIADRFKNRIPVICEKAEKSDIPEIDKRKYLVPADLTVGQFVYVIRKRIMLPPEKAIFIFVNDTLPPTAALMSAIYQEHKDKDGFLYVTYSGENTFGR

Variants of: B1
Conditions: with atg8_yeast ATG8, P38182

| Variant | effect of a mutation on the interaction |
| --- | --- |
| MIRSTLSSWREYLTPITHKSTFLTTGQITPEEFVQAGDYLCHMFPTWKWNEESSDISYRDFLPKNKQFLIIRKVPCDKRAEQCVEVEGPDVIMKGFAEDGDEDDVLEYIGSETEHVQSTPAGGTKDSSIDDIDELIQDMEIKEEDENDDTEEFNAKGGLAKDMAQERYYDLYIAYSTSYRVPKMYIVGFNSNGSPLSPEQMFEDISADYRTKTATIEKLPFYKNSVLSVSIHPAKHANVMKILLDKVRVVRQRRRKELQEEQELDGVGDWEDLQDDIDDSLRVDQYLIVFLKFITSVTPSIQHDYTMEGW [C234A] | disrupting interaction |
| MIRSTLSSWREYLTPITHKSTFLTTGQITPEEFVQAGDYLCHMFPTWKWNEESSDISYRDFLPKNKQFLIIRKVPCDKRAEQCVEVEGPDVIMKGFAEDGDEDDVLEYIGSETEHVQSTPAGGTKDSSIDDIDELIQDMEIKEEDENDDTEEFNAKGGLAKDMAQERYYDLYIAYSTSYRVPKMYIVGFNSNGSPLSPEQMFEDISADYRTKTATIEKLPFYKNSVLSVSIHPSKHANVMKILLDKVRVVRQRRRKELQEEQELDGVGDWEDLQDDIDDSLRVDQYLIVFLKFITSVTPSIQHDYTMEGW [C234S] | disrupting interaction |
